Measured values: patent US8026218 (UNIVERSITY OF ARIZONA, dated 2011)
Square brackets hold non-standard residues; d marks the D form. Ends that are not written are not given here. * marks the point of attachment. OBzl(3,5-(CF3)2) = FC(F)(F)c1cc(CO*)cc(C(F)(F)F)c1

Columns and labels:
human δ opioid receptor [1] = biological target: T1, human δ opioid receptor (human, UniProt P41143 1-372); experiment: competition vs [3H]DPDPE, hDOR cell membranes
T1 construct: whole, on cells; membrane preparations of the transfected cells were used; also called hDOR; DOR

rat µ opioid receptor [2] = biological target: T2, rat µ opioid receptor (rat, UniProt P33535 1-398); experiment: competition vs [3H]DAMGO, rMOR cell membranes
T2 construct: whole, on cells; membrane preparations of the transfected cells were used; also called rMOR; MOR

human NK1 receptor = biological target: T3, human NK1 receptor (human, UniProt P25103 1-407); experiment: competition vs [3H]Substance P, hNK1 CHO cell membranes
T3 construct: whole, on cells; membrane preparations of the transfected cells were used; also called hNK1; human neurokinin-1 receptor

rat NK1 receptor = biological target: T4, rat NK1 receptor (rat, UniProt P14600 1-407); experiment: competition vs [3H]Substance P, rNK1 CHO cell membranes
T4 construct: whole, on cells; membrane preparations of the transfected cells were used; also called rNK1; rNK-1

human δ opioid receptor [3] = biological target: T1, human δ opioid receptor; experiment: cell-based or functional assay
rat µ opioid receptor [4] = biological target: T2, rat µ opioid receptor; experiment: cell-based or functional assay

T1 sequence (P41143 whole entry, stated change not applied): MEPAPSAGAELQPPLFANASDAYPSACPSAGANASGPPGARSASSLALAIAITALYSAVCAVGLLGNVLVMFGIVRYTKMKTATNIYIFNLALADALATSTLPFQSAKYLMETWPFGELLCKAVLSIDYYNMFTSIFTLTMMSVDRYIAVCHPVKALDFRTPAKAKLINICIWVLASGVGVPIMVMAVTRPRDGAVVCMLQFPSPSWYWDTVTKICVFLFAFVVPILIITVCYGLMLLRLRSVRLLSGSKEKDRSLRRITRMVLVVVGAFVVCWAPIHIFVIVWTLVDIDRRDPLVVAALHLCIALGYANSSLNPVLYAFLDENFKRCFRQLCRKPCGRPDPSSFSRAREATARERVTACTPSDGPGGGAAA
T2 sequence (P33535 whole entry): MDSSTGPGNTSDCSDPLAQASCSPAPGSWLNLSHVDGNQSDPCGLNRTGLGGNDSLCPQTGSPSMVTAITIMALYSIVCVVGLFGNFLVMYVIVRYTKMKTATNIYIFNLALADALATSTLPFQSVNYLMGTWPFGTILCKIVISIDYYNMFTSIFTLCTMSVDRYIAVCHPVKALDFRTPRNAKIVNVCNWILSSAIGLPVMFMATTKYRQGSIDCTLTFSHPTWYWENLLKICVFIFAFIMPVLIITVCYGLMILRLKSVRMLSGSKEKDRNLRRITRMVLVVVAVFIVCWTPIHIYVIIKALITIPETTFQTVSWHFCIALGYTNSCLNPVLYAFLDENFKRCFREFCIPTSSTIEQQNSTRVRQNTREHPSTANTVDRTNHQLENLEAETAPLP
T4 sequence (P14600 whole entry): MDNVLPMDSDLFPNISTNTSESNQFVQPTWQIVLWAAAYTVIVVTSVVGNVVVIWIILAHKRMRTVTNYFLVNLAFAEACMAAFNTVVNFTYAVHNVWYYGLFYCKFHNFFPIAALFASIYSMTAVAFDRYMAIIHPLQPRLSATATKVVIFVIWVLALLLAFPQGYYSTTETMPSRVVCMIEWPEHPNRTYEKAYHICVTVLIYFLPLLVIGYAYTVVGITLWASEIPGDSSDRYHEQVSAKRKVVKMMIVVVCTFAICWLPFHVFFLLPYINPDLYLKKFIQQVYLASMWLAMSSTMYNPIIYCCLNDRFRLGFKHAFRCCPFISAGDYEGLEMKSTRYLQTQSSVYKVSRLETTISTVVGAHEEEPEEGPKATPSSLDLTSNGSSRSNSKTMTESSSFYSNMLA
T3 sequence (P25103 whole entry): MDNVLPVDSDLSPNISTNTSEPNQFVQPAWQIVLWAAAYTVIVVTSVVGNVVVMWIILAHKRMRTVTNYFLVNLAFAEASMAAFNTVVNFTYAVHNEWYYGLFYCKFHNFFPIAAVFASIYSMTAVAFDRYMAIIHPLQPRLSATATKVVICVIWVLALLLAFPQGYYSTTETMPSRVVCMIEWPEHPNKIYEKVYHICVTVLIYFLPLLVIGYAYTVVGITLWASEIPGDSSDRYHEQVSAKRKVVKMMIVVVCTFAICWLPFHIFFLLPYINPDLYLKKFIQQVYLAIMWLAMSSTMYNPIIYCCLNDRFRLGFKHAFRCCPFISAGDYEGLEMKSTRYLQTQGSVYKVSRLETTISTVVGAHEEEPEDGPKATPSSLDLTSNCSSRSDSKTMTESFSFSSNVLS

B1: Tyr-D-Ala-Gly-Trp-O-3′,5′(CF3)2-Bzl (peptide)
peptide: Y[dA]GW-{OBzl(3,5-(CF3)2)}
notes: also called NP44
Ki (human δ opioid receptor [1]): 306 nM
Ki (rat µ opioid receptor [2]): 48.5 nM
Ki (human NK1 receptor): 0.03 nM
Ki (rat NK1 receptor): 3.4 nM
GTP EC50 (human δ opioid receptor [3]): 280 nM
GTP EC50 (rat µ opioid receptor [4]): 22.9 nM
